Here are results for 7 variants from IntAct's records for PubMed 25232744.

First the molecules themselves.
B1: T-box brain protein 1 (Homo sapiens), Q16650 (parent)
chain: MQLEHCLSPSIMLSKKFLNVSSSYPHSGGSELVLHDHPIISTTDNLERSSPLKKITRGMTNQSDTDNFPDSKDSPGDVQRSKLSPVLDGVSELRHSFDGSAADRYLLSQSSQPQSAATAPSAMFPYPGQHGPAHPAFSIGSPSRYMAHHPVITNGAYNSLLSNSSPQGYPTAGYPYPQQYGHSYQGAPFYQFSSTQPGLVPGKAQVYLCNRPLWLKFHRHQTEMIITKQGRRMFPFLSFNISGLDPTAHYNIFVDVILADPNHWRFQGGKWVPCGKADTNVQGNRVYMHPDSPNTGAHWMRQEISFGKLKLTNNKGASNNNGQMVVLQSLHKYQPRLHVVEVNEDGTEDTSQPGRVQTFTFPETQFIAVTAYQNTDITQLKIDHNPFAKGFRDNYDTIYTGCDMDRLTPSPNDSPRSQIVPGARYAMAGSFLQDQFVSNYAKARFHPGAGAGPGPGTDRSVPHTNGLLSPQQAEDPGAPSPQRWFVTPANNRLDFAASAYDTATDFAGNAATLLSYAAAGVKALPLQAAGCTGRPLGYYADPSGWGARSPPQYCGTKSGSVLPCWPNSAAAAARMAGANPYLGEEAEGLAAERSPLPPGAAEDAKPKDLSDSSWIETPSSIKSIDSSDSGIYEQAKRRRISPADTPVSESSSPLKSEVLAQRDCEKNCAKDISGYYGFYSHS
B2: Forkhead box protein P2 (Homo sapiens), O15409-1 (parent)
chain: MMQESATETISNSSMNQNGMSTLSSQLDAGSRDGRSSGDTSSEVSTVELLHLQQQQALQAARQLLLQQQTSGLKSPKSSDKQRPLQVPVSVAMMTPQVITPQQMQQILQQQVLSPQQLQALLQQQQAVMLQQQQLQEFYKKQQEQLHLQLLQQQQQQQQQQQQQQQQQQQQQQQQQQQQQQQQQQQQQQQQHPGKQAKEQQQQQQQQQQLAAQQLVFQQQLLQMQQLQQQQHLLSLQRQGLISIPPGQAALPVQSLPQAGLSPAEIQQLWKEVTGVHSMEDNGIKHGGLDLTTNNSSSTTSSNTSKASPPITHHSIVNGQSSVLSARRDSSSHEETGASHTLYGHGVCKWPGCESICEDFGQFLKHLNNEHALDDRSTAQCRVQMQVVQQLEIQLSKERERLQAMMTHLHMRPSEPKPSPKPLNLVSSVTMSKNMLETSPQSLPQTPTTPTAPVTPITQGPSVITPASVPNVGAIRRRHSDKYNIPMSSEIAPNYEFYKNADVRPPFTYATLIRQAIMESSDRQLTLNEIYSWFTRTFAYFRRNAATWKNAVRHNLSLHKCFVRVENVKGAVWTVDEVEYQKRRSQKITGSPTLVKNIPTSLGYGAALNASLQAALAESSLPLLSNPGLINNASSGLLQAVHEDLNGSLDHIDSNGNSSPGCSPQPHIHSIHVKEEPVIAEDEDCPMSLVTTANHSPELEDDREIEEEPLSEDLE
partner: B1 chain

Variants of B1 are the subject of the first experiment. Particulars: with FOXP2, O15409-1.
In the case of Q178E, the “effect of a mutation on the interaction” value is listed as “decreasing interaction strength”. The same measure, in the same setting: the same measure for V356M: “decreasing interaction strength”; for Q418R: “disrupting interaction strength”.

As to K228E, the “effect of a mutation on the interaction” value is reported as “disrupting interaction strength”. Consider P542R, for which the “effect of a mutation on the interaction” value is “decreasing interaction strength”.

Take N374H: the “effect of a mutation on the interaction” value is recorded as “disrupting interaction strength”.

The variants in another experiment derive from B2. To be noted: with tbr1_human TBR1, Q16650.
In the case of R553H, the “effect of a mutation on the interaction” value is given as “decreasing interaction strength”.
